Results published in PMC5716276 (The Journal of Cell Biology, 2017).

Target: T1, Strep lyspersin (subunit of recombinant BORCΔBLOC-1) (UniProt Q96GS4 1-357)
T1 sequence: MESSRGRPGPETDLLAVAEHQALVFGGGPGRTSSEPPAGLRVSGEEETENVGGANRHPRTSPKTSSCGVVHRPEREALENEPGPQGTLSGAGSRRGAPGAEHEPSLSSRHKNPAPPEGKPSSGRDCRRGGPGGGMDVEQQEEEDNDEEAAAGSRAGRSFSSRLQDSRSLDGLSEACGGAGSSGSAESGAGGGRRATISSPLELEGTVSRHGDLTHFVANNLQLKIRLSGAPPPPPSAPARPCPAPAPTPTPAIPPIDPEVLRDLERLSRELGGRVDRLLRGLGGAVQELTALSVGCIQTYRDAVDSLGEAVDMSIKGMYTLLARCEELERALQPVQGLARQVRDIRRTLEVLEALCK
Experiment: cross-linking

binding result: binds
B1: KxDL1 (subunit of recombinant BORCΔBLOC-1) (natural protein)
chain: MDLPDSASRVFCGRILSMVNTDDVNAIILAQKNMLDRFEKTNEMLLNFNNLSSARLQQMSERFLHHTRTLVEMKRDLDSIFRRIRTLKGKLARQHPEAFSHIPEASFLEEEDEDPIPPSTTTTIATSEQSTGSCDTSPDTVSPSLSPGFEDLSHVQPGSPAINGRSQTDDEEMTGE
